Laboratory results as given in US7122382.

Biological target: SV40 large T (SV40), P03070
Assay: biotinylated row protein on streptavidin beads, 35S column protein counted
Conditions: remark: other sources report otherwise

B1: p53, P02340 1-390 (protein)
chain: MTAMEESQSDISLELPLSQETFSGLWKLLPPEDILPSPHCMDDLLLPQDVEEFFEGPSEALRVSGAPAAQDPVTETPGPVAPAPATPWPLSSFVPSQKTYQGNYGFHLGFLQSGTAKSVMCTYSPPLNKLFCQLAKTCPVQLWVSATPPAGSRVRAMAIYKKSQHMTEVVRRCPHHERCSDGDGLAPPQHLIRVEGNLYPEYLEDRQTFRHSVVVPYEPPEAGSEYTTIHYKYMCNSSCMGGMNRRPILTIITLEDSSGNLLGRDSFEVRVCACPGRDRRTEEENFRKKEVLCPELPPGSAKRALPTCTSASPPQKKKPLDGEYFTLKIRGRKRFEMFRELNEALELKDAHATEESGDSRAHSSYLKTKKGQSTSRHKKTMVKKVGPDSD
modifications: here or on the partner: 35S-methionine label or biotinylated lysine, by its role in the assay
- RI (c.p.m.): 884 c.p.m.
